Measurements: patent US6689868 (Dana-Farber, dated 2004)

T1: B42-CD2BP1S/ΔSH3 (CD2BP1S truncation construct lacking the terminal SH3 domain) (human, UniProt O43586 1-359)
T1 sequence: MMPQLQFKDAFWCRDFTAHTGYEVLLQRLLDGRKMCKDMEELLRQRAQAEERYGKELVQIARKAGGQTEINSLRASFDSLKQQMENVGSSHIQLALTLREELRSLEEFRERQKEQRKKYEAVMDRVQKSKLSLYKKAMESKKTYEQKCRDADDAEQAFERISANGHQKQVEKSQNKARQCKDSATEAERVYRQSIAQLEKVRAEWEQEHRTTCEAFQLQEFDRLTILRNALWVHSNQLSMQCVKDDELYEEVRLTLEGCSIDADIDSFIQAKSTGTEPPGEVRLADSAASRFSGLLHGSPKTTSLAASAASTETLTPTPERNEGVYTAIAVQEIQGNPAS

T2: B42-CD2BP1L fusion (CD2BP1L in pJG4-5) (human, UniProt O43586 1-416)
T2 sequence: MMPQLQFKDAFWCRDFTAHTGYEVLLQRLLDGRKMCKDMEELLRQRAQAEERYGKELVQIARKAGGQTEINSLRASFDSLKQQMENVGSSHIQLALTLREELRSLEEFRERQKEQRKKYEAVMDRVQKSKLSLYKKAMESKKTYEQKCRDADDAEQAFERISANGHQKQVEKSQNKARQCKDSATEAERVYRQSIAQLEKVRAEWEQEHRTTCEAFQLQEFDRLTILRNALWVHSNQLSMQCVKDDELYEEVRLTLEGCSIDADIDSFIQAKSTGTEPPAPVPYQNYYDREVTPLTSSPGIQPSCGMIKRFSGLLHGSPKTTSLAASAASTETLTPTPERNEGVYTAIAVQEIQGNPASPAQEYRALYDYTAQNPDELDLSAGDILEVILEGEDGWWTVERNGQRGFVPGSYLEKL

T3: B42-CD2BP1S fusion (CD2BP1S in pJG4-5) (human, UniProt O43586 1-416)
T3 construct: also called clone #48; CD2BP1S/pJG4-5
T3 sequence: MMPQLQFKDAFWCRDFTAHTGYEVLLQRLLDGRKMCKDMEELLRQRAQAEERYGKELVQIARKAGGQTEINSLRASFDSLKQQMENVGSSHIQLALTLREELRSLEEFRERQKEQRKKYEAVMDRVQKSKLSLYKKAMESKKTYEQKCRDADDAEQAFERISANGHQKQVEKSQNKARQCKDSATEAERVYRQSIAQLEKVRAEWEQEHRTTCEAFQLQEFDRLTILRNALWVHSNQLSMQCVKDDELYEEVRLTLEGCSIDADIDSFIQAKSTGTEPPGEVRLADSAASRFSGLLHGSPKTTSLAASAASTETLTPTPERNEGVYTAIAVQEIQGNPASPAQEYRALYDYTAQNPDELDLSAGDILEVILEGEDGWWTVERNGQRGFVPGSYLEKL

T4: human CD2 (wild-type, full length) (human, UniProt P06729 25-351)
T4 construct: whole, on cells; In pull-downs and immunoprecipitations it stood in Triton X-100 cell lysates; in staining and rosetting on the cell surface; also called wtCD2; hCD2wt (W33)
T4 sequence (looked up): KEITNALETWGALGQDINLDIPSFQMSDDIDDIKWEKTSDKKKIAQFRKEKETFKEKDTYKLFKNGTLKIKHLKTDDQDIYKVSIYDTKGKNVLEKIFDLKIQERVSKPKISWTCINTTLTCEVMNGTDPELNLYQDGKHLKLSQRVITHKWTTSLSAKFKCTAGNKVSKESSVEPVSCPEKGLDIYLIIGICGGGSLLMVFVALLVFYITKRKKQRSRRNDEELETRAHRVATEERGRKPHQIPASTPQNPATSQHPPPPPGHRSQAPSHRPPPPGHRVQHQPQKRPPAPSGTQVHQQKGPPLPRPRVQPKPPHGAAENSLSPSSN

B1: LexA-CD2 tail truncation construct M (other, UniProt P0A7C2 1-202, looked up)
chain: MKALTARQQEVFDLIRDHISQTGMPPTRAEIAQRLGFRSPNAAEEHLKALARKGVIEIVSGASRGIRLLQEEEEGLPLVGRVAAGEPLLAQQHIEGHYQVDPSLFKPNADFLLRVSGMSMKDIGIMDGDLLAVHKTQDVRNGQVVVARIDDEVTVKRLKKQGNKVELLPENSEFKPIVVDLRQQSFTIEGLAVGVIRNGDWLNDEELETRAHRVATEERGRKPHQIPASTPQNPATSQHPPPPPGHRSQAPSHRPPPPGHRVQHQPQKR
B2: LexA-CD2 tail truncation construct N (other, UniProt P0A7C2 1-202, looked up)
chain: MKALTARQQEVFDLIRDHISQTGMPPTRAEIAQRLGFRSPNAAEEHLKALARKGVIEIVSGASRGIRLLQEEEEGLPLVGRVAAGEPLLAQQHIEGHYQVDPSLFKPNADFLLRVSGMSMKDIGIMDGDLLAVHKTQDVRNGQVVVARIDDEVTVKRLKKQGNKVELLPENSEFKPIVVDLRQQSFTIEGLAVGVIRNGDWLNDEELETRAHRVATEERGRKPHQIPASTPQNPATSQHPPPPPGHRSQAPS

How the values were obtained:
[1] = target: B2; experiment: yeast two-hybrid, lacZ induction
Method: (§1) These tail variants were tested in the yeast two-hybrid system for their interaction with CD2BP1L or CD2BP1S as well as CD2BP1 truncations. In FIG. 7, open bars represent the region of CD2BP1 sequence with homology to yeast cdc15 protein aa 116–277; solid bars represent PEST rich regions in the CD2BP1 sequences; and hatched bars represent the SH3 domain in the CD2BP1 sequences. CD2BP1S/ΔSH3 represents CD2BP1 lacking the SH3 domain. $SH334$ includes the entire SH3 domain of CD2BP1 and 34 N-terminal amino acids. $SH366$ includes the SH3 domain of CD2BP1S and 66 N-terminal amino acids. $SH383$ includes the SH3 domain of CD2BP1L and 83 N-terminal amino acids of CD2BP1L. SH^3GGGGS includes the entire SH3 domain of CD2BP1 and an artificial N-terminal linker consisting of the residues shown.
(§2) The strength of the interaction between the CD2 variants and the CD2BP1 constructs was determined by lacZ induction.

[2] = target: B1; experiment: yeast two-hybrid, lacZ induction
Method: as §1, §2

[3] = target: T1, B42-CD2BP1S/ΔSH3 (CD2BP1S truncation …); experiment: yeast two-hybrid, lacZ induction
Method: as §1, §2

[4] = target: T2, B42-CD2BP1L fusion (CD2BP1L in pJG4-5); experiment: yeast two-hybrid, lacZ induction
Method: as §1, §2

[5] = target: T3, B42-CD2BP1S fusion (CD2BP1S in pJG4-5); experiment: yeast two-hybrid (LexA-CD2 tail variant / B42-CD2BP1 construct), lacZ induction
Method: as §1, §2

[6] = target: T4, human CD2 (wild-type, full length); experiment: cell-cell conjugates of activated human T cells with CD58-transfected CHO cells, immunofluorescence
Method: For image analysis of the CD2BP1 association with CD2, CD2 molecules on the activated T cell surface were induced to cluster by either a pair of anti-CD2 antibodies (anti-T11_2 plus anti-T11_3) or by CD58 ligand directed CD2 relocalization. For antibody crosslinking, activated T cells were incubated with anti-T11_2 mAb (5 μg/ml) and direct Texas red labeled anti-T11_3 mAb (1:50) in FACS buffer at 4° C. for 30 min, followed by two washes with FACS buffer and fixation by incubation in 2% paraformaldehyde/PBS. The cells were then permeabilized and stained with directly FITC-labeled anti-CD2BP1 mAb, followed by fluoroimaging analysis as described above. For ligand induced surface CD2 relocalization, activated T cells were incubated with CD58 transfected CHO cells prebound to coverslips to induce cellular conjugate formation as described previously (Li et al., 1996). After washing off the non-conjugated T cells and fixation in 1% parafornaldehyde, the conjugates were stained with anti-T11_3 antibody (1:50) at 4° C. for 30 min, followed by washing, permeabilization and staining with anti-CD2BP1 antibody as described above. The stained conjugates on the coverslips were then subject to fluoroimaging analysis. […]

[7] = target: T3, B42-CD2BP1S fusion (CD2BP1S in pJG4-5); experiment: yeast two-hybrid, lacZ induction
Method: as §1, §2

Binder | binding result [3] | binding result [4] | binding result [7] | other results
B42-SH334 (SH3 domain of CD2BP1 plus 34 N-terminal amino acids) (other, not shown: large carriers) ASAASTETLTPTPERNEGVYTAIAVQEIQGNPASPAQEYRALYDYTAQNPDELDLSAGDILEVILEGEDGWWTVERNGQRGFVPGSYLEKL | – | – | – | binding result [1]: no binding; binding result [2]: no binding
LexA-CD2 cytoplasmic tail fusion (CD2 bait, aa 221-327) in pEG202 (other, UniProt P0A7C2 1-202, looked up, The CD2 aa numbers (tail ends at 327) appear to count on mature CD2, not on the precursor; also called CD2 tail; pEG202/CD2) MKALTARQQEVFDLIRDHISQTGMPPTRAEIAQRLGFRSPNAAEEHLKALARKGVIEIVSGASRGIRLLQEEEEGLPLVGRVAAGEPLLAQQHIEGHYQVDPSLFKPNADFLLRVSGMSMKDIGIMDGDLLAVHKTQDVRNGQVVVARIDDEVTVKRLKKQGNKVELLPENSEFKPIVVDLRQQSFTIEGLAVGVIRNGDWLNDEELETRAHRVATEERGRKPHQIPASTPQNPATSQHPPPPPGHRSQAPSHRPPPPGHRVQHQPQKRPPAPSGTQVHQQKGPPLPRPRVQPKPPHGAAENSLSPSSN | no binding | binds | – | binding result [5]: binds
human CD58 (on transfected CHO cells) (ligand, UniProt P19256 29-250, looked up, whole, on cells; also called CD58 ligand; human CD58-transfected CHO cells) FSQQIYGVVYGNVTFHVPSNVPLKEVLWKKQKDKVAELENSEFRAFSSFKNRVYLDTVSGSLTIYNLTSSDEDEYEMESPNITDTMKFFLYVLESLPSPTLTCALTNGSIEVQCMIPEHYNSHRGLIMYSWDCPMEQCKRNSTSIYFKMENDLPQKIQCTLSNPLFNTTSSIILTTCIPSSGHSRHRYALIPIPLAVITTCIVLYMNGILKCDRKPDRTNSN | – | – | – | binding result [6]: binds
B1 | no binding | no binding | no binding | –
B2 | no binding | no binding | no binding | –
